# B1: M-phase phosphoprotein 8 (Homo sapiens), Q99549 (parent)
# chain: MEQVAEGARVTAVPVSAADSTEELAEVEEGVGVVGEDNDAAARGAEAFGDSEEDGEDVFEVEKILDMKTEGGKVLYKVRWKGYTSDDDTWEPEIHLEDCKEVLLEFRKKIAENKAKAVRKDIQRLSLNNDIFEANSDSDQQSETKEDTSPKKKKKKLRQREEKSPDDLKKKKAKAGKLKDKSKPDLESSLESLVFDLRTKKRISEAKEELKESKKPKKDEVKETKELKKVKKGEIRDLKTKTREDPKENRKTKKEKFVESQVESESSVLNDSPFPEDDSEGLHSDSREEKQNTKSARERAGQDMGLEHGFEKPLDSAMSAEEDTDVRGRRKKKTPRKAEDTRENRKLENKNAFLEKKTVPKKQRNQDRSKSAAELEKLMPVSAQTPKGRRLSGEERGLWSTDSAEEDKETKRNESKEKYQKRHDSDKEEKGRKEPKGLKTLKEIRNAFDLFKLTPEEKNDVSENNRKREEIPLDFKTIDDHKTKENKQSLKERRNTRDETDTWAYIAAEGDQEVLDSVCQADENSDGRQQILSLGMDLQLEWMKLEDFQKHLDGKDENFAATDAIPSNVLRDAVKNGDYITVKVALNSNEEYNLDQEDSSGMTLVMLAAAGGQDDLLRLLITKGAKVNGRQKNGTTALIHAAEKNFLTTVAILLEAGAFVNVQQSNGETALMKACKRGNSDIVRLVIECGADCNILSKHQNSALHFAKQSNNVLVYDLLKNHLETLSRVAEETIKDYFEARLALLEPVFPIACHRLCEGPDFSTDFNYKPPQNIPEGSGILLFIFHANFLGKEVIARLCGPCSVQAVVLNDKFQLPVFLDSHFVYSFSPVAGPNKLFIRLTEAPSAKVKLLIGAYRVQLQ
# Variants of: B1
# Conditions: with h31_human H3C1, P68431
row,effect of a mutation on the interaction,Variant
1,disrupting interaction,W80A

# From IntAct's records for PubMed 20871592
